Assay [1] concerns the target β-amyloid peptide (1-42) conjugated to BSA (Aβ1-42-Cys-BSA conjugate) (bovine). The assay can be described thus: competitive ELISA on Aβ1-42-BSA against biotinylated Mu266 (0.3 µg/ml), second set of three experiments.
The target is the same in assay [2]. Nature of the assay: competitive ELISA on Aβ1-42-BSA against biotinylated Mu266 (0.3 µg/ml), first set of three experiments. A general note: In an ELISA, binding on a coated surface is turned into a signal by an enzyme label.
A further assay has as its target Aβ 1-40 peptide (human). Nature of the assay: KinExA 3000 equilibrium analysis, 37 C, Fab with serially diluted human soluble Abeta (1-40). (Kinetic exclusion samples the free partner from a solution-phase mixture.)
The target of assay [3] is T1, β-amyloid peptide (1-42) conjugated to BSA (Aβ1-42-Cys-BSA conjugate) (bovine, maleimide-activated; Cys43 coupled to maleimide-activated bovine serum albumin).
T1 construct: Coated on ELISA plates at 10 µg/mL; also called Aβ1-42-BSA conjugate; Aβ1-42-Cys43
The assay can be described thus: competitive ELISA on Aβ1-42-BSA against biotinylated Mu266 (0.3 µg/ml), second set of three experiments. The method, then:
(§1) The Aβ142-BSA conjugate was prepared by dissolving 7.5 mg of Aβ₁₋₄₂-Cys₄₃ (C-terminal cysteine Aβ₁₋₄₂, AnaSpec) in 500 μL of dimethylsulfoxide, and then immediately adding 1,500 μL of distilled water. Two (2) milligrams of maleimide-activated bovine serum albumin (Pierce) was dissolved in 200 μL of distilled water. The two solutions were combined, thoroughly mixed, and allowed to stand at room temperature for two (2) hours. A gel chromatography column was used to separate unreacted peptide from Aβ₁₋₄₂-Cys-BSA conjugate.
(§2) After washing the wells with phosphate buffered saline (PBS) containing 0.1% Tween 20 (Washing Buffer) using an ELISA plate washer, the wells were blocked by adding 300 μL of SuperBlock reagent (Pierce) per well. After 30 minutes of blocking, the wells were washed Washing Buffer and excess liquid was removed.
(§3) As a background control, 100 μl of ELISA Buffer was added. The ELISA plate was incubated at room temperature for 90 min. After washing the wells with Washing Buffer, 100 μl of 1 μg/ml HRP-conjugated streptavidin (Cat #21124, Pierce) was added to each well. […] Absorbance was read at 415 nm. The absorbances were plotted against the log of the competitor concentration, curves were fit to the data points (using Prism) and the IC50 was determined for each antibody using methods well-known in the art.

The target of assay [4] is T1, β-amyloid peptide (1-42) conjugated to …. The assay can be described thus: competitive ELISA on Aβ1-42-BSA against biotinylated Mu266 (0.3 µg/ml), first set of three experiments. The method, then:
as §1, §2, §3

For the molecule Mouse monoclonal antibody 266 (Mu266), the IC50 was 3.87 µg/mL in assay [1] and 4.7 µg/mL in assay [2].
As to “m266-Fab (Fab fragment of murine monoclonal antibody 266)”, the Kd in the assay with Aβ 1-40 peptide (human) was determined as 0.24 nM.

B1: humanized 266 antibody (Hu266) (antibody, human IgG1, kappa, V domains shown)
VH: EVQLVESGGGLVQPGGSLRLSCAASGFTFSRYSMSWVRQAPGKGLELVAQINSVGNSTYYPDTVKGRFTISRDNAKNTLYLQMNSLRAEDTAVYYCASGDYWGQGTLVTVSS
VL: DVVMTQSPLSLPVTLGQPASISCRSSQSLIYSDGNAYLHWFLQKPGQSPRLLIYKVSNRFSGVPDRFSGSGSGTDFTLKISRVEAEDVGVYYCSQSTHVPWTFGQGTKVEIKR
notes: Mature antibody expressed from pVk-Hu266 and pVg1-Hu266 in Sp2/0 cells; also called exemplified anti-Aβ antibody
For B1, the IC50 worked out at 4 µg/mL in assay [3] and 7.5 µg/mL in assay [4].

By IC50 is commonly meant the concentration that inhibits the measured activity by half. A low value points to greater potency in that assay. As usually defined, the Kd is the constant that tells how readily two partners part at equilibrium.
